The nanobody polyreactivity screen of Harvey et al. (2022)

Experiment: yeast display, Sf9 membrane polyspecificity reagent, FACS + sequencing; frameworks hold sequencing errors
In short: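 A synthetic nanobody library was expressed on Saccharomyces cerevisiae BJ5465 by galactose induction for 36–48 hours. The library was stained for 1 hour at 4 °C with 10% biotinylated, detergent-solubilized Sf9 membrane reagent and enriched with streptavidin microbeads before FACS. Low and high (top ~1%) gates were set on anti-HA fluorescence for expression and streptavidin fluorescence for reagent binding, and each polyreactivity label reflects the gate of origin.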

| Sequence | polyreactivity (PSR sort gate) |
| --- | --- |
| HVQLVESGGGLVQAGGSLRLSCAASGSTLYWNAIGWYRQAPGKEMELVASITSSGGSTYYADSVKGRFTISRDNAKNTVYLQMNSLKPEDTAVYYCATESWWRYSEYYYWGQGTQVTVSS | low polyreactivity |
| QVQLVESGGGLVQAGGSLRLSCAASGNIFVRYAMGWYRQAPGKERELVAAISRGGRTNYADSVKGRFTISRDNAKNTVYLQMNSLKPEDTAVYYCAADVRYHFYYWGQGTQVTVSS | high polyreactivity |
| QVQLVESGGGLVQAGGSLRLSCAASGFTFTYNAMGWYRQAPGKERELVAGITLGSRTNYADSVKGRFTISRDNAKNTVYLQMNSLKPEDTAVYYCAVRYYGGYGYWGQGTQVTVSS | high polyreactivity |
| QVQLVESGGALVQAGGSLRLSCAASGRIFRGYAMGWYRQAPGKERELVAAISSRGSRTYYADSVKGPFTISRDNAKNTVYLQMNSLKPEDTAVYYCAADVPGVTTSYAPYDSEYWGQGSQVTVSS | high polyreactivity |
| QVQLVESGGGLVQAGGSLRLSCAASGFTFWRYAKGWYRHAPGKERELVAAISSGGSTNYADSVKGRFTISRDNAKNTVYIQMNSLKPEDTAVYYCNARYYHKRSTRVIFPYDYWGQGTQVTVSS | high polyreactivity |
| QVQLVESGGGLVQAGGSLRLSCAASGRIITRNVMGWYRQAPGKERELVAAISTSGGSTFYADSVKGRFTISRDNAKKTVYLQMNSLKPEDTAVYYCAKRRYGKLEFWGQGTQVTVSS | high polyreactivity |
| QVQLVESGGGLVQAGGSLRLSCAASGRIYTWNAMGWYRQAPGKERDLVASISRSGTSTYYADSVKGRNTISRDNALTTVYLQMNSLKPEDTAVYYCAAKTSRGDRTQVEYWGQGTQVTVSS | high polyreactivity |
| QVQLVESGGGLVQAGGSLRLSCAASGLIFTWYAMGWYRQAPGKERELVADISWSDDSTNYADSVKGRFTISRDNAKNTVYLQMNSLKPEDTAVYYCATQLDYGGRVGDADDYWGQGTQVTVSS | low polyreactivity |
| QVQLVESGGGLVQAGGSLRISCAASGFTIAYYAMGWYRQAPGKERQKVASISSGDSTHYADSVKGRFTISRDNAKNTVYLQMNSLKPEDTAVYYCNADTRTFYYAAKTGFTFLYGYWGQGTQVTVSS | high polyreactivity |
| QFQLVESGGGLVQAGGSLRLSCAASGRTFRGYAMGWYRQAPGKERELVAAITWRGGSTYYADSVKGRFTISRDNAKNTVYLQMNSLKPEDTAVYYCNTLVWSYLGGYYSRFDYWGQGTQVTVSS | high polyreactivity |
| QVQLVESGGGLVQAGGSLRLSCAASGRTFPYYAMGWYRQAPGKERELVARITSGSGTYYADSVKGRFTISRDNAKNTVYLQMNSLKPEDTAVYYCAAREPGVGYVGNYTGLVYWGQGTQVTVSS | low polyreactivity |
| QVQLVESGGGLVQAGGSLRLSCAASGSILDPNAMGWYRQAPGKESELVANITNGGRTNFADSVKGRFTISRDNAKNTVYFQMNRLKPEDTAVYYCAKDSTFNSVTVLAPIIYDSWGQATQVTVSS | low polyreactivity |
| QVQLVESGGGLVQAGGSLRLSCAASGRTFFYAMGWYRQAPGKEREFVAAISWSGGSTYYADSVKGRFTISRDNAKNTVYLQMNSLKPEDTAVYYCNKVGYYGVGTSQEFDYWGQGTQVTVSS | high polyreactivity |
| QVQLGESGGGLVHAGGSLRLSCAASGFIFGYYAMGWYRQAPGKERELVAAISQSTGSTYYADSVKGRFTISRDTAKNTVYLQMNSLKPEATAVYYCNAEGPEFTTWGYVYWAWGYGYWGQGTQVTVSS | low polyreactivity |
| QVQLVESGGGLVQAGGSLRLSCAASGITFKPNTMGWYRQAPGKERELVAAIDWSGSSTYYADSVKGRFTISRDNAKNTVYLQMISLKPEDTAVYYCAADDYEYFWSYDYWGQGTQVTVSS | low polyreactivity |
| QVQLVESGGGLVQAGGSLRLSCAASGSTFSPYAMGWYRQAPGKERELVAAINYSSGSTYYADSVKGRFTISRDNAKNTVYLQMNSLKPEDTAVYYCANGWYAGYPYDYWGQGTQVTVSS | low polyreactivity |
| QVQLVESGVGLVQAGGSLRLSCAASGGNFWSYPMGLYRQAPGKEREYVAAITTSAGRTNYADSVKGRFTISRDNAKNSVYLQMNSLKPEDTAVYYCAARSAYPGLGYGFDYWGQGTQVTVSS | low polyreactivity |
| QVQLLESGGRLVQAGGSLRLSCAPSGFIFISYALGWYRQAPGKERELDAAIDWRGGSSTYYADSVKGRFTISRDNAKNTVYFPMISLKPEDTAVYYCAAEGVTWYLWDFYDFYGYWGQGTQVTVSS | high polyreactivity |
| QVQLVESGGGLVQAGGSLRLSCAASGSIISGYAMGWYRQAPGQERELVAAISRSGGRTYYADSVKGRFTISRDNAKNTVYLQMNSLKPEETAVYYCAAKIYIPRGYDYWGQGTQVTVSS | high polyreactivity |
| QVQLVESGGGLVQAGGSLRLSCAASGSTFSRYTMGWYRQAPGKERELVAAIRRSGASTYYADSVKGRFTISRDNAKNTVYLQMNSLKPEDTAVYYCAVGRYRYGYWGQGTQVTVSS | high polyreactivity |
| QVQLVESGGGLVQAGGSLRLISAASGRTFRVYAIGWYRPAPGKEREFVATISVRGGSTYYADSVKGRFTISRDNAKNTVYLQMNSLKPEDTAFYYCAADSYPYVYALYDYWGQGTQVTVSS | low polyreactivity |
| QVQLVESGGGLVQAGGSLRLSCAASGNTYDPNAMGWYRQAPGKERELVAAISSDGSTKYADSVKGRFTISRDNAKNTVYLQMNSLKPEDTAVYYCAADHGYWYWYGGDNSWGQGTQVTVSS | low polyreactivity |

| Sequence | polyreactivity (PSR sort gate) |
| --- | --- |
| QVQLVESGGGLVQAGGSLRLSSAPSGSTFPGYAMGWYRQAPGKERQLVAAITGRGTSTYYADSVKGRFTISRDNAKNTVYLQMNSLKPEDTAVYYCAPYATFPTRYYYWGQGTQVTVSS | high polyreactivity |
| QVQLVESGGGLVHDGGSLRLSCAASGSILWPYAMGLYRQAPGKERELVAAISTGGSTYYADSVKGRFTISRDNANNTVYLQRNSLKPEDTAVYYCAAFVDYSVYFGGGYWGQGTQVTVSS | low polyreactivity |
| QVQLVESGGGLVHAGGSLRLSCAASGRIFFDYTMGWYRQAPGKERELVAAIRTRGDSTYYADSVKGRFTISRDNAKNTFYLQMNSLKPEDTAVYYCAAAVYVRGRRESWGQGTQVTVSS | high polyreactivity |
| QVQLVESGGGLVQAGGSLRLSCAASGITFGDYAMGWYRQAPGKERELVAAISKRGGSTYYAESVKGRFTISRDNAKNTVYLQMNSRNPEDTAVYYCAADYYSKAYYYWGQGTQVTVSS | high polyreactivity |
| QVQLVESGGGLVQAGGSLRLSCAASGRIFYYNAMGWYRQAPGKERELVAAITKSSGSTYYADSVKGRFTISRDNAKNTVFLQMNSLKPEDTAVYYCAKDKYLVFGFVGGDYWGQGTQVTVSS | low polyreactivity |
| QVQLVESGGGLVQAGGSLRLSCAASVITSPYAMGWYRQAPGKERELVAAISWSGSSTYYADSVKGRFTISRDNAKNTVYLQINSLKPEDTAVYYCATLVSDSRSRRFGYEYWGQGSQVTVSS | high polyreactivity |
| QVQLVDSGGGLVQAGGSLRLSCDASGLIFRYYTMGWYRQAPGKERELVATITKSGSSTYYADSVKGRFTISRDNAKNTVYLQMNSLKPEDTAVYYCAARAYPSSPRGVYAYYYWGQGTQVTVSS | high polyreactivity |
| QVQLVESRGGLVQAGGSLRLSCAASGSTFRTNTMGWSRQAPGKEREVVADISWSGGSTDYADSVKGRFTISRDNAKNTVYLQMNSLKPEDTAVYFCAKDGAFWTYYSWYDYWGQGTQVTVSS | low polyreactivity |
| QVQLVESGGGLVQAGGSLRLSCAASGLTFYGYVMGWYRQAPGKEWELVASISRSGGRTYYADSVKGRFTISRDNAKNTVFLQMNSLKPEDTAVYYCAKYLSRQSGDGEYDYWGQGTQVTVSS | low polyreactivity |
| QVQLVESGGGLVQAGGSLRLSCAASGSTLYYYAMGWYRQAPGTERELGAAITWSGDSTYYADSVKGRFTISRDNAKNTVYLQMNSLKPEDTAVYYCAAEVESYDPYYTYDYWGQGTQVTVSS | high polyreactivity |
| QVQLVESGGGLVQAGGTLRLSCAASGIIFDRNVMGWYRQAPGKERELVAAITRNGGNTYYADSVKGRFTISRDNAKNTVYLQLNSLKPEDTAVYYCNAKYWPFSRWYYFWGQRTQVTVSS | high polyreactivity |
| QVQHVESGGGLVQAGGSLRLSCAASGYISVGYAMGWSRQAPGKERELVAAITESGGSTYYADSVKGRFTISRDNAKNTVYLQMNSLKPEDTAVYYCAADVIYEDRMDYWGQGTQVTVSS | low polyreactivity |
| QVQLVESRGGLVQAGGSLRLSCAASGRIFNVYAMGWYRQAPGKERELVAGISGSGGRTYYADSVKGRFTISRDNAKNTVYLQMNSLKPEDTAVYYCNTVRHYSSWGQGTQVTVSS | high polyreactivity |
| QVQLVESVGGLVLAGASLRLSCAASGSTYAPNAMGWYRQAPGKERELVAVITSGDSTYYAVSVKGRFTISRDNAKNTVYLQMNSLKPEDTAVYYCASETYGTPGYYYWGQGTQVTVSS | low polyreactivity |
| QVQLVESGGGLVPARGSLRLSCAASGFIFSDNAMGWYRQAPGKERELVAAITDDGDTTYYADSVKGSFTISRDNAKNTVYLQMISLKPEDTAVYYCATEIEDVEDSGPYYYVGYGYWGQGTQVTVSS | high polyreactivity |
| QVQLVESGGGLVQAGGSLRLSCAASGRTFRAYAMGWYRQAPGKERELVAGITSGGSTNYADSVKGRFTISRDNAKNTVYLQMNSLKPEDTAVYYCAARRGTYRYRYDYWGQGTQVTVSS | high polyreactivity |
| QVQLEESGGGIVQAGGSLRLSCAASGSTFRKYAMRWYRQAPGKERDFVAAITWSTGTTYYADSVKGRFTISRDNAKNTVYLQMNSLKPEDTAVYFCAADSQPPHELYESIEHESWGQGTQVTVSS | low polyreactivity |
| QVQLVESGGGLVQAGGSLRLSCAASGFTFNWNTMGWYRQAPGKERELVAAISSGGITYYADSVKGRFTISRDNAKNTVYLQMNSLKPEDTAVYYCNVRPFRPHNRYGYWGQFTQVTVSS | high polyreactivity |
| QVQLVESGGGLVQAGGSLRLSCAASVFTFTHYAMGWYRQSAGKERELVAAISTSGVSTYYSDSVKGRFTISRDNAKNTVYLQMNSLKPEDTAVYYCAARRDGWFQWGYYYWGQGTQVTVSS | low polyreactivity |
| QVQLVESGGGLVQAGGSLRLSCAASGFIFSPYAMGWYRQAPGKERELVAAISSGVGTRTYYADSVKGRFTISRDNAKNNVYLQINSLKPEDTAVYYCAARIPAWRAAERGGYWGQGTQVTVSS | high polyreactivity |
| QVQLVESGGGLVQAGGSLRLSCAASGRIFNRNAMGWYRQAPGKERELVAAISSDTSTNYADSVKGRFTISRDNAKNTVYLQMNSLKPEDTAVYYCAADVRRYDGYDYWGQGTQVTVSS | low polyreactivity |
